Source: publication PMC3357956 (Nature structural & molecular biology, 2011)

Target: the molecule itself
Assay: thioflavin T fluorescence

B1: wild-type TDP46mer (synthetic TDP-43 peptide Gln286-Gln331) (peptide, UniProt Q13148 286-331, looked up)
peptide: QGGFGNSRGGGAGLGNNQGSNMGGGMNFGAFSINPAMMAAAQAALQ
binding result: binds
